In publication PMC12803953, “The MO25 protein Pmo25 functions in contractile ring stability and Sid2 localization during cytokinesis” (iScience, 2025):

Columns and labels:
[1] = molecular target: T1, MBP-Ync13-full length-6His (S. pombe, UniProt O13683 1-1237); assay: pull-down; Kd by depletion of the supernatant: various concentrations of MBP-Ync13 proteins immobilised on amylose beads with a fixed low concentration of Pmo25-(19–329)-6His, 1 h at 4°C; supernatant on SDS-PAGE, Coomassie Blue; one site binding equation; conditions: both partners purified
T1 construct: cloned in pET21a-MBP between the MBP-TEV-GGSGGS fragment and the C-terminal 6xHis tag; A TEV site and a GGSGGS linker stand between MBP and Ync13; also called MBP-tagged full length Ync13; not shown: MBP, N-terminal, kept; His6, C-terminal, kept
T1 sequence (looked up): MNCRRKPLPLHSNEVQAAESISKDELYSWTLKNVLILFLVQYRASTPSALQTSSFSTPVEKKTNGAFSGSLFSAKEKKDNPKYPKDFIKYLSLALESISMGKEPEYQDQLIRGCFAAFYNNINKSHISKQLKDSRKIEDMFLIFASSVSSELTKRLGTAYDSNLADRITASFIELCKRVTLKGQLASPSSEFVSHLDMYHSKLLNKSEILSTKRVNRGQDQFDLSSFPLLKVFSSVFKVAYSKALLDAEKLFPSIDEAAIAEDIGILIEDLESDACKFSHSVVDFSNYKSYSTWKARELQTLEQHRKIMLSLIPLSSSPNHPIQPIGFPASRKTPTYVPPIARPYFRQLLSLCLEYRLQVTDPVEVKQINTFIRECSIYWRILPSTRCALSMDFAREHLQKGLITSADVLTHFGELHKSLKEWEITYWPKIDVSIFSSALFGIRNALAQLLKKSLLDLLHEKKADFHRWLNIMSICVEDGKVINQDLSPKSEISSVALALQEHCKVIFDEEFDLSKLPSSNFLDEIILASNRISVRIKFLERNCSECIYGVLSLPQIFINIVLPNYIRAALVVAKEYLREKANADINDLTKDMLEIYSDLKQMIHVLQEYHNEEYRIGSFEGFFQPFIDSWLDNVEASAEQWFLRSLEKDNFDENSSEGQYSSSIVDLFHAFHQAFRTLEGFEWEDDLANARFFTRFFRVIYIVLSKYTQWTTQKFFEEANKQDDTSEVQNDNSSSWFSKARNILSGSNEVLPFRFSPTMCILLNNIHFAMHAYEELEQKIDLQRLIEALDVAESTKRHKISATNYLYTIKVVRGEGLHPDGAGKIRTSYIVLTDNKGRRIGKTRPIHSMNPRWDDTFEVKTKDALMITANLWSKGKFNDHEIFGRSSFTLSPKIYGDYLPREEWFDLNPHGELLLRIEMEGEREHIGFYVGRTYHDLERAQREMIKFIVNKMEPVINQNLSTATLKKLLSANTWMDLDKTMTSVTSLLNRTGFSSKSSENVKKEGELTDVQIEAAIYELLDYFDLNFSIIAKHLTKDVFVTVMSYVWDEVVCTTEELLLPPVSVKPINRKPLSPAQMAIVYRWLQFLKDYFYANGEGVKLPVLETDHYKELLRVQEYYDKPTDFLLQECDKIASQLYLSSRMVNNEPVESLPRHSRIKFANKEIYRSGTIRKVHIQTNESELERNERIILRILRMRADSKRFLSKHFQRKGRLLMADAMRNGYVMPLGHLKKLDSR

[2] = molecular target: T2, MBP-Ync13-(591–1130)-6His (S. pombe, UniProt O13683 591-1130); assay: as above; conditions: both partners purified
T2 construct: The cloning of this fragment is not described; not shown: MBP, N-terminal, kept; His6, C-terminal, kept
T2 sequence (looked up): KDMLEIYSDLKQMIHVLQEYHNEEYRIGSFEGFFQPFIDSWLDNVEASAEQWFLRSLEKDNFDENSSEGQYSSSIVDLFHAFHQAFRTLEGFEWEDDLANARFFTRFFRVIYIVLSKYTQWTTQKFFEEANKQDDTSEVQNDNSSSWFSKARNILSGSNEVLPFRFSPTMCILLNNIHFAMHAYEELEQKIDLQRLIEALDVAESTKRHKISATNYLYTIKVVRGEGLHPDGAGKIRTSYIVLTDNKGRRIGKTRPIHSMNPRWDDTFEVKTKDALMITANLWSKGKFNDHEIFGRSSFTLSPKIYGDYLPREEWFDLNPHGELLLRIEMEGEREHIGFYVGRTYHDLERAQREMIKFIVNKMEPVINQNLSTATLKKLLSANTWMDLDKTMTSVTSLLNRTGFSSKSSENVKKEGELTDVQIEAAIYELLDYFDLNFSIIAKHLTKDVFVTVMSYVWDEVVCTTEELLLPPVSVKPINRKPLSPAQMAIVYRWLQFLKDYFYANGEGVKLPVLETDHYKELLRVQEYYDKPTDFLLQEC

Kd [1]: 490 nM
Kd [2]: 620 nM
B1: Pmo25-(19–329)-6His (domain or fragment, S. pombe, UniProt Q9P7Q8 19-329, looked up)
chain: LCDNLPKLEINNDKKKSFEEVSKCLQNLRVSLCGTAEVEPDADLVSDLSFQIYQSNLPFLLVRYLPKLEFESKKDTGLIFSALLRRHVASRYPTVDYMLAHPQIFPVLVSYYRYQEVAFTAGSILRECSRHEALNEVLLNSRDFWTFFSLIQASSFDMASDAFSTFKSILLNHKSQVAEFISYHFDEFFKQYTVLLKSENYVTKRQSLKLLGEILLNRANRSVMTRYISSAENLKLMMILLRDKSKNIQFEAFHVFKLFVANPEKSEEVIEILRRNKSKLISYLSAFHTDRKNDEQFNDERAFVIKQIERL
notes: in pET21a between the N-terminal T7 tag and the C-terminal 6xHis tag; not shown: His6, C-terminal, kept
